Laboratory results reported in patent US7824885B2, “Engineered proteases for affinity purification and processing of fusion proteins” (University of Maryland, College Park, priority 2003, dated 2010).

Target: S160 (Bacillus amyloliquefaciens, UniProt P00782, DEL180-188/E263S/G190A/G235S/G273S/G276A/I138L/K150N/M157F/N319G/N325S/Q313C/Q378E/S116A/S295P/T361A/Y211A/Y324L)
Test: inhibition of S160 by prodomain pR58
Assay type: biochemical

S160, sequence (P00782 other isoform, or with tags, fused parts or gaps with the stated changes): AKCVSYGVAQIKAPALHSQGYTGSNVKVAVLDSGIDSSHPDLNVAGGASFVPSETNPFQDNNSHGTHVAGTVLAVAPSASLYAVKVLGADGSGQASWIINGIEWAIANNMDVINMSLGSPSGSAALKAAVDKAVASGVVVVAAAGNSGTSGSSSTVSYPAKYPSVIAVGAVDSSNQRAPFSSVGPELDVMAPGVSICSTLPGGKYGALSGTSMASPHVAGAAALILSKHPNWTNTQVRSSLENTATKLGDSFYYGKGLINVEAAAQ

B1: pR58: version of pR8 with its last four amino acids (AHAY) replaced with FRAM (protein)
chain: AGKSNGEKKYIVGFKSGIKSCAKKQDVISEKGGKLQKCFKYVDAASATLNEKAVKELKKDPSVAYVEEDKVFRAM
modifications: pR58 (pR8FRAM) variant of SEQ ID NO 2
notes: version of pR8 with its last four amino acids (AHAY) replaced with FRAM
- Ki: ~0.03 nM
